Source: patent US20250026849A1 (ARCELLX, published 2025)

B1: D domain of SEQ ID NO: 629 (designed binder)
chain: MGSWIEFDERLDAIDFRLWALGGSEAELAWFEGWIAEFESDLQLYKGKGNPEVEALNEEANAIFHELSAYRHN
B2: D domain of SEQ ID NO: 643 (designed binder)
chain: MGSWDEFEFRLEAIDSRLWALGGSEAELAVFEYEIAQFEFMLQEYKGKGNPEVEALGMEAWAIENELFAYRHN
B3: D domain of SEQ ID NO: 645 (designed binder)
chain: MGSWYEFFDRLDAIDERLWALGGSEAELAWFEAEIAEFEMELQGYKGKGNPEVEALDVEAHAIEMELFAYRHN
B4: D domain of SEQ ID NO: 624 (designed binder)
chain: MGSWVEFDNRLFAIDERLWALGGSEAELAWFEEEIASFEDNLQKYKGKGNPEVEALQLEAFAIMEELDAYRHN
B5: D domain of SEQ ID NO: 636 (designed binder)
chain: MGSWVEFMDRLEAIEERLSALGGSEAELAFFEWEIAEFEEHLQVYKGKGNPEVEALEWEALAITEELAAYRHN
B6: D domain of SEQ ID NO: 637 (designed binder)
chain: MGSWIEFMDRLWAIDQRLWALGGSEAELAWFEEEIAWFEEELQVYKGKGNPEVEALEWEATAISEELWAYRHN
B7: D domain of SEQ ID NO: 644 (designed binder)
chain: MGSWEEFEWRLDAIDERLWALGGSEAELATFEYEIAIFENELQQYKGKGNPEVEALDSEAYAIERELGAYRHN
B8: D domain of SEQ ID NO: 623 (designed binder)
chain: MGSWEEFLFRLEAIQDRLWALGGSEAELAWFEYEIASFEDVLQSYKGKGNPEVEALSTEAKAIDYELFAYRHN
B9: D domain of SEQ ID NO: 638 (designed binder)
chain: MGSWEEFNWRLRAIDERLFALGGSEAELAWFEYDIAEFEEQLQVYKGKGNPEVEALRVEAAAIAEELYAYRHN
B10: D domain of SEQ ID NO: 647 (designed binder)
chain: MGSWVEFSNRLDAIWERLQALGGSEAELAYFEWEIAEFEWELQSYKGKGNPEVEALNAEADAIEWELEAYRHN
B11: D domain of SEQ ID NO: 650 (designed binder)
chain: MGSWDEFAMRLEAIQARLFALGGSEAELAIFEDEIAFFETMLQDYKGKGNPEVEALEYEAAAIEAELGAYRHN
B12: D domain of SEQ ID NO: 651 (designed binder)
chain: MGSWWEFNARLDAIEDRLMALGGSEAELAYFEDIIASFENILQQYKGKGNPEVEALWYEAYAIEKELNAYRHN
B13: D domain of SEQ ID NO: 639 (designed binder)
chain: MGSWWEFEIRLDAIDERLWALGGSEAELAWFEQSIAFFENDLQVYKGKGNPEVEALRWEANAIIEELFAYRHN
B14: D domain of SEQ ID NO: 642 (designed binder)
chain: MGSWWEFEDRLYAIDDRLWALGGSEAELAQFEREIAQFEIWLQEYKGKGNPEVEALDDEATAINSELFAYRHN
B15: D domain of SEQ ID NO: 649 (designed binder)
chain: MGSWWEFKYRLDAICFRLAALGGSEAELASFEDEIAYFEEDLQGYKGKGNPEVEALDYEALAIWDELAAYRHN
B16: D domain of SEQ ID NO: 627 (designed binder)
chain: MGSWVEFDSRLAAIDYRLEALGGSEAELAWFEYTIANFEHTLQMYKGKGNPEVEALVYEAHAIATELQAYRHN
B17: D domain of SEQ ID NO: 652 (designed binder)
chain: MGSWIEFWNRLEAIEERLYALGGSEAELAYFEDEIAEFEIYLQQYKGKGNPEVEALKHEAEAINKELMAYRHN
B18: D domain of SEQ ID NO: 621 (designed binder)
chain: MGSWMEFEDRLMAIVDRLWALGGSEAELADFEWNIAMFEEELQWYKGKGNPEVEALGDEAEAIEWELYAYRHN
B19: D domain of SEQ ID NO: 612 (designed binder)
chain: MGSWEEFDYRLYAIQDRLYALGGSEAELAFFEWEIADFEHMLQMYKGKGNPEVEALFQEADAIDAELHAYRHN
B20: D domain of SEQ ID NO: 635 (designed binder)
chain: MGSWFEFNDRLDAISERLSALGGSEAELAYFEWQIAVFEKTLQNYKGKGNPEVEALTLEANAIFEELEAYRHN
B21: D domain of SEQ ID NO: 625 (designed binder)
chain: MGSWFEFDDRLEAIFDRLWALGGSEAELAMFEFAIAEFEDALQEYKGKGNPEVEALYEEAVAIDEELYAYRHN
B22: D domain of SEQ ID NO: 631 (designed binder)
chain: MGSWYEFDERLDAIFDRLWALGGSEAELAYFEQVIATFEKTLQRYKGKGNPEVEALDTEAKAISWELDAYRHN
B23: D domain of SEQ ID NO: 615 (designed binder)
chain: MGSWFEFEYRLDAIIDRLFALGGSEAELAEFESMIANFEYSLQEYKGKGNPEVEALYFEADAIVDELTAYRHN
B24: D domain of SEQ ID NO: 613 (designed binder)
chain: MGSWIEFFHRLDAIQDRLDALGGSEAELAYFEWAIADFEHMLQLYKGKGNPEVEALQFEAFAIEGELYAYRHN
B25: D domain of SEQ ID NO: 619 (designed binder)
chain: MGSWHEFEKRLYAIEDRLIALGGSEAELAWFEDSIAWFEWDLQMYKGKGNPEVEALNEEADAIYQELDAYRHN
B26: D domain of SEQ ID NO: 640 (designed binder)
chain: MGSWYEFEWRLDAIDRRLWALGGSEAELADFEEEIADFEWMLQNYKGKGNPEVEALVDEASAIQTELWAYRHN
B27: D domain of SEQ ID NO: 634 (designed binder)
chain: MGSWFEFGDRLEAIDERLYALGGSEAELAQFEWWIAEFEHHLQDYKGKGNPEVEALEYEADAIWGELHAYRHN
B28: D domain of SEQ ID NO: 646 (designed binder)
chain: MGSWYEFMGRLEAIDERLQALGGSEAELAWFEHEIAEFEWSLQWYKGKGNPEVEALRFEAGAIPWELWAYRHN
B29: D domain of SEQ ID NO: 653 (designed binder)
chain: MGSWNEFVIRLFAIDDRLYALGGSEAELAWFEDEIATFEYELQRYKGKGNPEVEALEYEAEAIVSELFAYRHN
B30: D domain of SEQ ID NO: 620 (designed binder)
chain: MGSWIEFEDRLDAITDRLWALGGSEAELAEFEHQIAFFEEDLQWYKGKGNPEVEALHMEAEAIMEELGAYRHN
B31: D domain of SEQ ID NO: 654 (designed binder)
chain: MGSWYEFLARLYAIDERLWALGGSEAELATFEHWIADFEEQLQSYKGKGNPEVEALTDEAVAIGEELSAYRHN
B32: D domain of SEQ ID NO: 648 (designed binder)
chain: MGSWEEFHMRLIAIDERLWALGGSEAELAGFEESIAYFESQLQDYKGKGNPEVEALDYEAHAIWRELYAYRHN
B33: D domain of SEQ ID NO: 617 (designed binder)
chain: MGSWHEFEERLMAIEDRLWALGGSEAELAEFEQWIALFEYDLQEYKGKGNPEVEALGMEAFAINNELSAYRHN
B34: D domain of SEQ ID NO: 632 (designed binder)
chain: MGSWYEFQERLDAIDSRLWALGGSEAELAWFEYTIAEFEKELQMYKGKGNPEVEALGTEAVAISEELMAYRHN
B35: D domain of SEQ ID NO: 616 (designed binder)
chain: MGSWLEFEYRLDAIYDRLFALGGSEAELAAFEQDIADFEKYLQYYKGKGNPEVEALWEEADAIMWELFAYRHN
B36: D domain of SEQ ID NO: 626 (designed binder)
chain: MGSWFEFDARLMAINDRLWALGGSEAELAAFEYHIALFEDQLQMYKGKGNPEVEALTLEAVAINEELWAYRHN
B37: D domain of SEQ ID NO: 633 (designed binder)
chain: MGSWEEFEDRLWAIDGRLYALGGSEAELAWFEQWIATFEEDLQDYKGKGNPEVEALEYEASAIFEELEAYRHN
B38: D domain of SEQ ID NO: 614 (designed binder)
chain: MGSWYEFSSRLNAIDDRLWALGGSEAELAYFETDIADFESLLQWYKGKGNPEVEALLNEADAIDYELYAYRHN
B39: D domain of SEQ ID NO: 630 (designed binder)
chain: MGSWWEFDSRLDAIDFRLWALGGSEAELAWFEVEIADFEDWLQLYKGKGNPEVEALWHEADAIVTELYAYRHN
B40: D domain of SEQ ID NO: 618 (designed binder)
chain: MGSWYEFEERLDAIEDRLIALGGSEAELAIFEDIIAFFEQDLQYYKGKGNPEVEALEMEAEAISIELDAYRHN
B41: D domain of SEQ ID NO: 641 (designed binder)
chain: MGSWYEFVYRLRAIDERLDALGGSEAELAMFEFEIAFFEDQLQRYKGKGNPEVEALVDEAQAIDFELFAYRHN
B42: D domain of SEQ ID NO: 628 (designed binder)
chain: MGSWTEFDERLDAIDWRLEALGGSEAELAWFEGDIALFEQYLQVYKGKGNPEVEALMEEADAIKAELDAYRHN
B43: D domain of SEQ ID NO: 622 (designed binder)
chain: MGSWEEFEDRLFAIDSRLWALGGSEAELAEFENIIASFEEVLQEYKGKGNPEVEALSVEAFAIDRELGAYRHN

Biological target: T1, CD123 (Homo sapiens (Human), UniProt P26951 19-305, limits assumed)
T1 construct: The CD123 construct used in the ELISA is not described; also called CD123-Signal
T1 sequence: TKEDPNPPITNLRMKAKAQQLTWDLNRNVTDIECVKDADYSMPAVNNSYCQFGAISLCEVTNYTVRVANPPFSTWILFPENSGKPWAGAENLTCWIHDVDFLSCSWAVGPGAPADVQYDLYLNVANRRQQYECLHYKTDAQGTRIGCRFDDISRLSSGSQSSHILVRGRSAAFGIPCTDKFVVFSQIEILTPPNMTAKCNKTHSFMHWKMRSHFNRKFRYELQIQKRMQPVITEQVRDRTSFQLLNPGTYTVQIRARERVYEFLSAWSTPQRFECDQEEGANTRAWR
Test: ELISA
Parameters: unit not given here

First: B1
Second: B2
The ELISA_avg of the first is higher: 7 for the first, 3.6 for the second.

Going from B3 to B4, the ELISA_avg falls from 3.7 to 3.3.

Compared with B5, B6 is higher in ELISA_avg: 4 for the first, 6.5 for the second.

First: B7
Second: B8
The ELISA_avg of the first is lower: 4.3 for the first, 8.2 for the second.

Going from B9 to B10, the ELISA_avg falls from 5.4 to 5.1.

Going from B11 to B12, the ELISA_avg falls from 3.7 to 3.4.

First: B13
Second: B14
The ELISA_avg of the first is lower: 3.2 for the first, 5.5 for the second.

First: B15
Second: B16
The ELISA_avg of the first is lower: 3.1 for the first, 3.4 for the second.

Going from B17 to B18, the ELISA_avg rises from 5.2 to 6.8.

Compared with B19, B20 is lower in ELISA_avg: 4.4 for the first, 3.9 for the second.

Compared with B21, B22 is lower in ELISA_avg: 4.1 for the first, 3 for the second.

Compared with B23, B24 is lower in ELISA_avg: 4 for the first, 3.5 for the second.

First: B25
Second: B26
The ELISA_avg of the first is lower: 3.6 for the first, 10 for the second.

Compared with B27, B28 is lower in ELISA_avg: 4.5 for the first, 3.5 for the second.

Compared with B29, B30 is higher in ELISA_avg: 3.5 for the first, 9.5 for the second.

First: B31
Second: B32
The ELISA_avg of the first is higher: 4.5 for the first, 3.9 for the second.

Compared with B33, B34 is lower in ELISA_avg: 5.8 for the first, 5.5 for the second.

First: B35
Second: B36
The ELISA_avg of the first is lower: 3.1 for the first, 4 for the second.

First: B37
Second: B38
The ELISA_avg of the first is higher: 9.4 for the first, 3.8 for the second.

First: B39
Second: B40
The ELISA_avg of the first is lower: 3.2 for the first, 4.1 for the second.

B41 and B42 are the same in ELISA_avg: 4.5 for the first, 4.5 for the second.

B43 gave an ELISA_avg of 3.7.
